Results on 16 sequences are retold here after the supplement of paper PMC9170038.

This data set has as its system MS2 coat protein. The data set can be described thus: apparent KD of MS2 coat protein; higher = weaker reporter binding. Particulars: Eterna round: R107. The gist of the method: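 On-chip transcription from Illumina sequencing clusters produced the designed RNA switches. These were titrated with SNAP-549-labelled MS2 coat protein (twofold steps, 0.7 or 1.5 nM to 3 µM) in 100 mM Tris-HCl pH 7.5, 80 mM KCl, 4 mM MgCl2, with or without constant ligand. The apparent KD given is the per-design median of normalised cluster binding-curve fits.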

The mark [1] stands for this setting: input ligand: theophylline 20 uM.
Setting [2] is: input ligand: theophylline 2 mM.
[3] abbreviates: input ligand: tryptophan 2.4 mM.

Consider “ACUUGUGAGUCGGCCGCCACUCACCGGUAGUGUCACUCGUUCACAAACAUGAGGAUCACCCAUGUGAGGACCGGGACAGUCGGGU [theeternabot_exclusion_MS2_Trp_B_28]”, for which the “apparent KD of MS2 coat protein” value reads like this: (input ligand: arginine 13.2 mM) 13.5 nM; under setting [1], 25.4 nM; under setting [2], 16.3 nM.

For the sequence “ACCUGUACGAAAAGUGCAGGACAGGAAAAUCGAGGACCGGUACGGCCGCCACUCGUAUAAACAAGUGGAUCACCCUUGUAACCUG [TrypAS 1 #AlternativeMS2 #Zipper]”, the “apparent KD of MS2 coat protein” value came out at 458 nM (input ligand: arginine 13.2 mM); 664 nM (input ligand: none); 1060 nM under setting [1]; 1760 nM under setting [2]; 1610 nM under setting [3].

For “ACGAUAGGACUUGAGGAACACCCAAGUGAUACCAGCCUGGAAACAGGCCCUUGGCAGCACUAAUACUCCAAUAACCUAUCGAAUA [TheoAX 15 #MicroSwitchBubble #AlternativeMS2]”, the “apparent KD of MS2 coat protein” value runs as follows: (input ligand: arginine 13.2 mM) 140 nM; (input ligand: none) 212 nM; under setting [1], 172 nM; under setting [2], 66.7 nM; under setting [3], 155 nM.

Take “UGUCAGCGAAAGUUGACAUGUCUUGCUGGUCGAGGACCGGUACGGCCGCCACUCGAUCUCUCGCACAUGAGGAUCACCCAUGUUG [SS Tryp A #23]”: the “apparent KD of MS2 coat protein” value reads like this: (input ligand: arginine 13.2 mM) 13.9 nM; under setting [1], 14.4 nM; under setting [2], 13.9 nM.

With “GUCCUAGCGAGCACUCGCUAGGACGCGGAUACCAGCGAGGUCCAUCGCCCUUGGCAGCCGAACAUGAGGAUCACCCAUGUCGGUA [#1 Same State - Theophylline A Attempt #17 (HarryS)]”, the “apparent KD of MS2 coat protein” value was determined as 12.6 nM (input ligand: arginine 13.2 mM); 10 nM (input ligand: none); 13.2 nM under setting [1]; 18 nM under setting [2]; 9.86 nM under setting [3].

On to “AAUCAUGAAAACAUGACAUGAGGAUCACUCCGAGGACCGGUACGGCCGCCACUCGCGAGGAGGCACAUGAGGAUCACCCAUGUUA [SS Tryp A #1]”, for which the “apparent KD of MS2 coat protein” value runs as follows: (input ligand: arginine 13.2 mM) 31.6 nM; under setting [1], 114 nM; under setting [2], 148 nM.

As for “GGCUAGUGCAUCGAUACCAGCUACAUGAGGAUCACCCAUGUAGGAAGGGUGGCACUCGAUAGCCCUUGGCAGCGAACACCUCCGG [Cebebion]”, the “apparent KD of MS2 coat protein” value was 53 nM (input ligand: arginine 13.2 mM); 18.9 nM (input ligand: none); 31.2 nM under setting [1]; 28.1 nM under setting [2]; 16.3 nM under setting [3].

“UCAGUGCAGGGAAGGAGCGGGUACAUGAGGAUCACCCAUGUGCAAGUGGUGAGCGUCCGUGCCCAGGUAGGUCGCCCAGCCUGGU [Atarteedon]”: the “apparent KD of MS2 coat protein” value is 69.2 nM (input ligand: arginine 13.2 mM); 121 nM (input ligand: none); 235 nM under setting [1]; 198 nM under setting [2]; 108 nM under setting [3].

“AGAGUUAGACAAAAGUCUAGCUCACCAGAAGGAGCGUCCGAAAGGACAGGUAGGUCGCUGGUACAUGAGGAUCACCCAUGUUCCU [ArgAS 8 #OpenEnded]”: the “apparent KD of MS2 coat protein” value runs as follows: (input ligand: arginine 13.2 mM) 43.5 nM; (input ligand: none) 124 nM; under setting [1], 116 nM; under setting [2], 145 nM; under setting [3], 82 nM.

“UCGUUUGAGGCGGCCGCCACUGGUCUCAUGGUCAACAUGAGGAUCACCCAUGUAUCUUAGUUAAGCAGGACCGGGCCUCGAGCGA [#18 Exclusion Tryptophan B]”: the “apparent KD of MS2 coat protein” value (input ligand: arginine 13.2 mM) is 38.9 nM; the “apparent KD of MS2 coat protein” value (input ligand: none) amounted to 72.7 nM; the “apparent KD of MS2 coat protein” value under setting [1] was found to be 105 nM; the “apparent KD of MS2 coat protein” value under setting [2] was 95.6 nM; the “apparent KD of MS2 coat protein” value under setting [3] is 32.3 nM.

With “GCAUCCUAGUCGGCCGCCACUGCAACAUGAGGAUCACCCAUGUCUGUAUGUGAUCCAUGCAGUAGCAGGACCGGGACUAGGAUGC [(T1)-(M1)-(M2)-(T)''-(M)'-(T)'-(T2)_Design3_2/18/17]”, the “apparent KD of MS2 coat protein” value is, setting by setting: (input ligand: arginine 13.2 mM) 237 nM; under setting [1], 467 nM; under setting [2], 833 nM.

Regarding “GCACCAGGUACGGAUACCAGCUGCUCGAGAUACAUGAGGAUCACCCAUGUGACCUGGUUUAGCCCUUGGCAGCUGUACCUGGUGC [#15 Same State - Theophylline B]”, the “apparent KD of MS2 coat protein” value is, setting by setting: (input ligand: arginine 13.2 mM) 16.4 nM; under setting [1], 15.3 nM; under setting [3], 17.2 nM.

With “UUGGGUUUGCGAAGGAGCGGGUAUGUUUUCUAGUGGAUCCUAACAUGAGGAUCACCCAUGUCCCAGGUAGGUCGCGCGGGUUUGG [12.V]”, the “apparent KD of MS2 coat protein” value (input ligand: arginine 13.2 mM) came out at 89.1 nM; the “apparent KD of MS2 coat protein” value (input ligand: none) turned out to be 122 nM; the “apparent KD of MS2 coat protein” value under setting [1] worked out at 230 nM; the “apparent KD of MS2 coat protein” value under setting [2] is 224 nM; the “apparent KD of MS2 coat protein” value under setting [3] is 148 nM.

In the case of “CGAUCUUUCGAAAGAAGGAUCGAGUCUGAUACCAGAGACGAAAGUCUCCCUUGGCAGCAGUGCCAACAUGAGGAUCACCCAUGUU [Theophylline A 10]”, the “apparent KD of MS2 coat protein” value (input ligand: arginine 13.2 mM) worked out at 16.2 nM, the “apparent KD of MS2 coat protein” value under setting [1] turned out to be 19.1 nM and the “apparent KD of MS2 coat protein” value under setting [3] was 15.8 nM.

Take “UGAAAGUAGGGAAGGAGCGCUACAACAUGAGGAUCACCCAUGUAAUGAGGAUCACCCAUGUGGCAGGUAGGUCGCCCAAAACAUG [#14 Same State - Arginine B]”: the “apparent KD of MS2 coat protein” value came to 85 nM (input ligand: arginine 13.2 mM); 167 nM (input ligand: none); 151 nM under setting [1]; 197 nM under setting [2]; 181 nM under setting [3].

Consider “AAAAUCCUAUCUGAGGAUCACCCAGGUGAAGGAGCGCCCGAAAGGGCAGGUAGGUCGCACCUGAGGAUCACCCUGGUAACCUAAA [ArgEX 10 #DoubleMS2 #OpenEnded #AlternativeMS2]”, for which the “apparent KD of MS2 coat protein” value worked out at 85.7 nM (input ligand: arginine 13.2 mM); 102 nM (input ligand: none); 105 nM under setting [1]; 123 nM under setting [2]; 88.5 nM under setting [3].
